Series [1] relates to HeLa Kyoto. Briefly: solubility in G1/S (NP-40 vs SDS abundance) (log2 ratio); higher = more soluble. As to conditions: cell cycle stage: G1/S.
The test system of series [2] is HeLa Kyoto. Briefly: melting temperature (median over replicates), in situ; higher = more thermally stable.
Series [3] deals with HeLa Kyoto. The series is described as follows: solubility change mitosis vs G1/S (difference of NP-40 vs SDS log2 ratios) (log2 ratio difference); higher = more soluble in mitosis.
The subject of series [4] is HeLa Kyoto. Briefly: thermal stability score vs G1/S (z-score of summed log2 fold changes over temperatures); higher = more thermally stable than in G1/S.
The mark [5] stands for this setting: cell cycle stage: early G1 (4.5 h after nocodazole release).
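Wherever melting temperature (median over replicates), in situ is given: HeLa Kyoto cells synchronized by double thymidine or nocodazole block, proteins quantified by TMT10plex mass spectrometry, three independent biological replicates.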
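Wherever solubility change mitosis vs G1/S (difference of NP-40 vs SDS log2 ratios) is given: synchronized HeLa Kyoto cells (double thymidine block for G1/S, nocodazole release for mitosis), protein amounts in NP-40 versus SDS lysates quantified by mass spectrometry, three biological replicates.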
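Wherever solubility in G1/S (NP-40 vs SDS abundance) is given: HeLa Kyoto cells arrested at G1/S by double thymidine block, proteins quantified by TMT10plex mass spectrometry in mild NP-40 versus SDS extracts, three biological replicates.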
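Wherever thermal stability score vs G1/S (z-score of summed log2 fold changes over temperatures) is given: synchronized HeLa Kyoto cells, proteins quantified by TMT10plex mass spectrometry, three biological replicates, mitosis taken 0.5 h after nocodazole release, G1/S directly after double thymidine block.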

For the sequence “MAAKSQPNIPKAKSLDGVTNDRTASQGQWGRAWEVDWFSLASVIFLLLFAPFIVYYFIMACDQYSCALTGPVVDIVTGHARLSDIWAKTPPITRKAAQLYTLWVTFQVLLYTSLPDFCHKFLPGYVGGIQEGAVTPAGVVNKYQINGLQAWLLTHLLWFANAHLLSWFSPTIIFDNWIPLLWCANILGYAVSTFAMVKGYFFPTSARDCKFTGNFFYNYMMGIEFNPRIGKWFDFKLFFNGRPGIVAWTLINLSFAAKQRELHSHVTNAMVLVNVLQAIYVIDFFWNETWYLKTIDICHDHFGWYLGWGDCVWLPYLYTLQGLYLVYHPVQLSTPHAVGVLLLGLVGYYIFRVANHQKDLFRRTDGRCLIWGRKPKVIECSYTSADGQRHHSKLLVSGFWGVARHFNYVGDLMGSLAYCLACGGGHLLPYFYIIYMAILLTHRCLRDEHRCASKYGRDWERYTAAVPYRLLPGIF [DHCR7]”, in the series on HeLa Kyoto [1], the “solubility in G1/S (log2)” value was -0.604. For the same sequence, the results for the melting temperature in the series with HeLa Kyoto [2] (cell cycle stage: G1/S) and in the series with HeLa Kyoto [2] (cell cycle stage: mitosis) were 51 °C and 50.7 °C, respectively. Further, in the series on HeLa Kyoto [3], the “solubility change mitosis (log2)” value is -0.0769. In addition, the figures for the thermal stability score in the series with HeLa Kyoto [4] (setting [5]) and in the series with HeLa Kyoto [4] (cell cycle stage: mitosis) were 0.148 and -0.18, respectively.

In the case of “MGLETEKADVQLFMDDDSYSHHSGLEYADPEKFADSDQDRDPHRLNSHLKLGFEDVIAEPVTTHSFDKVWICSHALFEISKYVMYKFLTVFLAIPLAFIAGILFATLSCLHIWILMPFVKTCLMVLPSVQTIWKSVTDVIIAPLCTSVGRCFSSVSLQLSQD [CAV2]”, in the series with HeLa Kyoto [1], the “solubility in G1/S (log2)” value was -0.178. Moreover, the results for the melting temperature in the series with HeLa Kyoto [2] (cell cycle stage: G1/S) and in the series on HeLa Kyoto [2] (cell cycle stage: mitosis) were 56.1 °C and 56.9 °C, respectively. Also, the “solubility change mitosis (log2)” value with HeLa Kyoto [3] is -0.0267. Also, the thermal stability score is -1.45 in the series with HeLa Kyoto [4] (setting [5]) and -2.03 with HeLa Kyoto [4] (cell cycle stage: mitosis).

As for “MAEISDLDRQIEQLRRCELIKESEVKALCAKAREILVEESNVQRVDSPVTVCGDIHGQFYDLKELFRVGGDVPETNYLFMGDFVDRGFYSVETFLLLLALKVRYPDRITLIRGNHESRQITQVYGFYDECLRKYGSVTVWRYCTEIFDYLSLSAIIDGKIFCVHGGLSPSIQTLDQIRTIDRKQEVPHDGPMCDLLWSDPEDTTGWGVSPRGAGYLFGSDVVAQFNAANDIDMICRAHQLVMEGYKWHFNETVLTVWSAPNYCYRCGNVAAILELDEHLQKDFIIFEAAPQETRGIPSKKPVADYFL [PPP4C]”, the “solubility in G1/S (log2)” value in the series with HeLa Kyoto [1] is -0.237. The melting temperature with HeLa Kyoto [2] (cell cycle stage: G1/S) stood at 54.8 °C; in the series with HeLa Kyoto [2] (cell cycle stage: mitosis), 55.3 °C. For the same sequence, in the series on HeLa Kyoto [3], the “solubility change mitosis (log2)” value was -0.0748. Further, the thermal stability score in the series with HeLa Kyoto [4] (setting [5]) is 0.0354; in the series with HeLa Kyoto [4] (cell cycle stage: mitosis), -1.42.

As for “MPPPSDIVKVAIEWPGANAQLLEIDQKRPLASIIKEVCDGWSLPNPEYYTLRYADGPQLYITEQTRSDIKNGTILQLAISPSRAARQLMERTQSSNMETRLDAMKELAKLSADVTFATEFINMDGIIVLTRLVESGTKLLSHYSEMLAFTLTAFLELMDHGIVSWDMVSITFIKQIAGYVSQPMVDVSILQRSLAILESMVLNSQSLYQKIAEEITVGQLISHLQVSNQEIQTYAIALINALFLKAPEDKRQDMANAFAQKHLRSIILNHVIRGNRPIKTEMAHQLYVLQVLTFNLLEERMMTKMDPNDQAQRDIIFELRRIAFDAESDPSNAPGSGTEKRKAMYTKDYKMLGFTNHINPAMDFTQTPPGMLALDNMLYLAKVHQDTYIRIVLENSSREDKHECPFGRSAIELTKMLCEILQVGELPNEGRNDYHPMFFTHDRAFEELFGICIQLLNKTWKEMRATAEDFNKVMQVVREQITRALPSKPNSLDQFKSKLRSLSYSEILRLRQSERMSQDDFQSPPIVELREKIQPEILELIKQQRLNRLCEGSSFRKIGNRRRQERFWYCRLALNHKVLHYGDLDDNPQGEVTFESLQEKIPVADIKAIVTGKDCPHMKEKSALKQNKEVLELAFSILYDPDETLNFIAPNKYEYCIWIDGLSALLGKDMSSELTKSDLDTLLSMEMKLRLLDLENIQIPEAPPPIPKEPSSYDFVYHYG [ELMO2]”, the “solubility in G1/S (log2)” value in the series on HeLa Kyoto [1] amounted to 0.00667. Moreover, the melting temperature with HeLa Kyoto [2] (cell cycle stage: G1/S) and in the series on HeLa Kyoto [2] (cell cycle stage: mitosis) was 49.5 °C each time. For the same sequence, in the series on HeLa Kyoto [3], the “solubility change mitosis (log2)” value was -0.134. The thermal stability score with HeLa Kyoto [4] (setting [5]) amounted to 0.0114; in the series with HeLa Kyoto [4] (cell cycle stage: mitosis), 0.0809.

As for “MAATELRGVVGPGPAAIAALGGGGAGPPVVGGGGGRGDAGPGSGAASGTVVAAAAGGPGPGAGGVAAAGPAPAPPTGGSGGSGAGGSGSAREGWLFKWTNYIKGYQRRWFVLSNGLLSYYRSKAEMRHTCRGTINLATANITVEDSCNFIISNGGAQTYHLKASSEVERQRWVTALELAKAKAVKMLAESDESGDEESVSQTDKTELQNTLRTLSSKVEDLSTCNDLIAKHGTALQRSLSELESLKLPAESNEKIKQVNERATLFRITSNAMINACRDFLMLAQTHSKKWQKSLQYERDQRIRLEETLEQLAKQHNHLERAFRGATVLPANTPGNVGSGKDQCCSGKGDMSDEDDENEFFDAPEIITMPENLGHKRTGSNISGASSDISLDEQYKHQLEETKKEKRTRIPYKPNYSLNLWSIMKNCIGKELSKIPMPVNFNEPLSMLQRLTEDLEYHELLDRAAKCENSLEQLCYVAAFTVSSYSTTVFRTSKPFNPLLGETFELDRLEENGYRSLCEQVSHHPPAAAHHAESKNGWTLRQEIKITSKFRGKYLSIMPLGTIHCIFHATGHHYTWKKVTTTVHNIIVGKLWIDQSGEIDIVNHKTGDKCNLKFVPYSYFSRDVARKVTGEVTDPSGKVHFALLGTWDEKMECFKVQPVIGENGGDARQRGHEAEESRVMLWKRNPLPKNAENMYYFSELALTLNAWESGTAPTDSRLRPDQRLMENGRWDEANAEKQRLEEKQRLSRKKREAEAMKATEDGTPYDPYKALWFERKKDPVTKELTHIYRGEYWECKEKQDWSSCPDIF [OSBP]”, in the series on HeLa Kyoto [1], the “solubility in G1/S (log2)” value was -0.0183. Further, the melting temperature in the series with HeLa Kyoto [2] (cell cycle stage: G1/S) is 52.1 °C; in the series on HeLa Kyoto [2] (cell cycle stage: mitosis), 51.9 °C. In the series with HeLa Kyoto [3], the “solubility change mitosis (log2)” value is -0.212. Moreover, the figures for the thermal stability score in the series with HeLa Kyoto [4] (setting [5]) and in the series with HeLa Kyoto [4] (cell cycle stage: mitosis) were -1.23 and -0.683, respectively.

Source of the values: the supplement of paper PMC5998384.
